Laboratory results: IntAct's records for PubMed 22872700

B1: Contactin-associated protein-like 2 (Homo sapiens), Q9UHC6-1 (parent)
chain: MQAAPRAGCGAALLLWIVSSCLCRAWTAPSTSQKCDEPLVSGLPHVAFSSSSSISGSYSPGYAKINKRGGAGGWSPSDSDHYQWLQVDFGNRKQISAIATQGRYSSSDWVTQYRMLYSDTGRNWKPYHQDGNIWAFPGNINSDGVVRHELQHPIIARYVRIVPLDWNGEGRIGLRIEVYGCSYWADVINFDGHVVLPYRFRNKKMKTLKDVIALNFKTSESEGVILHGEGQQGDYITLELKKAKLVLSLNLGSNQLGPIYGHTSVMTGSLLDDHHWHSVVIERQGRSINLTLDRSMQHFRTNGEFDYLDLDYEITFGGIPFSGKPSSSSRKNFKGCMESINYNGVNITDLARRKKLEPSNVGNLSFSCVEPYTVPVFFNATSYLEVPGRLNQDLFSVSFQFRTWNPNGLLVFSHFADNLGNVEIDLTESKVGVHINITQTKMSQIDISSGSGLNDGQWHEVRFLAKENFAILTIDGDEASAVRTNSPLQVKTGEKYFFGGFLNQMNNSSHSVLQPSFQGCMQLIQVDDQLVNLYEVAQRKPGSFANVSIDMCAIIDRCVPNHCEHGGKCSQTWDSFKCTCDETGYSGATCHNSIYEPSCEAYKHLGQTSNYYWIDPDGSGPLGPLKVYCNMTEDKVWTIVSHDLQMQTPVVGYNPEKYSVTQLVYSASMDQISAITDSAEYCEQYVSYFCKMSRLLNTPDGSPYTWWVGKANEKHYYWGGSGPGIQKCACGIERNCTDPKYYCNCDADYKQWRKDAGFLSYKDHLPVSQVVVGDTDRQGSEAKLSVGPLRCQGDRNYWNAASFPNPSSYLHFSTFQGETSADISFYFKTLTPWGVFLENMGKEDFIKLELKSATEVSFSFDVGNGPVEIVVRSPTPLNDDQWHRVTAERNVKQASLQVDRLPQQIRKAPTEGHTRLELYSQLFVGGAGGQQGFLGCIRSLRMNGVTLDLEERAKVTSGFISGCSGHCTSYGTNCENGGKCLERYHGYSCDCSNTAYDGTFCNKDVGAFFEEGMWLRYNFQAPATNARDSSSRVDNAPDQQNSHPDLAQEEIRFSFSTTKAPCILLYISSFTTDFLAVLVKPTGSLQIRYNLGGTREPYNIDVDHRNMANGQPHSVNITRHEKTIFLKLDHYPSVSYHLPSSSDTLFNSPKSLFLGKVIETGKIDQEIHKYNTPGFTGCLSRVQFNQIAPLKAALRQTNASAHVHIQGELVESNCGASPLTLSPMSSATDPWHLDHLDSASADFPYNPGQGQAIRNGVNRNSAIIGGVIAVVIFTILCTLVFLIRYMFRHKGTYHTNEAKGAESAESADAAIMNNDPNFTETIDESKKEWLI
partner: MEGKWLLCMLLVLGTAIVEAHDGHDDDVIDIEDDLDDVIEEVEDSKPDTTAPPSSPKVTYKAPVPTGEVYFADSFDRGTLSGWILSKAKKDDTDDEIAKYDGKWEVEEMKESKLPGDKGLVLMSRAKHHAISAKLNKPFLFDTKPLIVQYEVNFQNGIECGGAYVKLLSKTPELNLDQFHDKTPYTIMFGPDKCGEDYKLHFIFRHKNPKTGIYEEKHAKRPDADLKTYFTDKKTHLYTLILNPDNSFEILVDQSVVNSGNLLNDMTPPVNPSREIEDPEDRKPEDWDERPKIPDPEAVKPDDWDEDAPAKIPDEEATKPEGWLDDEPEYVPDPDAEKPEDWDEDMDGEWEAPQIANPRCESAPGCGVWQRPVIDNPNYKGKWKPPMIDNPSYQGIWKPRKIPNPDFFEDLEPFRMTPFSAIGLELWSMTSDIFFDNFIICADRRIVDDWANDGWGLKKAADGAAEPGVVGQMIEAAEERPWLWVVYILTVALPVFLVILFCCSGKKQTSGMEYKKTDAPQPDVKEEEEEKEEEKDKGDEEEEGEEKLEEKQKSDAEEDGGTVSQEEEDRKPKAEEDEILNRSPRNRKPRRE

Variants of: B1
Details: with calx_human CANX

Variant | effect of a mutation on the interaction
D1129H | increasing interaction strength
